Results reported in patent publication US11813311B2, “Treatment and prevention of metabolic diseases” (Singapore Health Services PTE LTD., priority 2019, dated 2023).
Like-named read-outs stand apart in the source and are kept apart here.

Key:
TGFβ1-stimulated HSCs = test: Inhibition of MMP2 secretion by TGFβ1-stimulated HSCs (IC50); type: cell-based, human
Protocol: HSCs (5300, ScienCell) were cultured in stellate cells complete media (5301, ScienCell) on poly-L-lysine-coated plates (2 μg/cm2, 0403, ScienCell).
HSCs were stimulated with TGFβ1(5 ng m1^−1, 24 h) in the presence of IgG (4 μg ml^−1) and varying concentrations of X209 (4 μg ml^−1 to 61 pg ml^−1; 4-fold dilutions). Supernatants were collected and assayed for the amount of secreted MMP2. Dose-response curves were generated by plotting the logarithm of X209 tested concentration (pM) versus corresponding percent inhibition values using least squares (ordinary) fit. The IC50 value was calculated using log(inhibitor) versus normalized response-variable slope equation.
The levels of IL-11 and MMP-2 in equal volumes of cell culture media were quantified using Human IL-11 Quantikine ELISA kit (D1100, R&D Systems) and Total MMP-2 Quantikine ELISA kit (MMP200, R&D Systems), respectively. Total secreted collagen in the cell culture supernatant was quantified using Sirius red collagen detection kit (9062, Chondrex). Total hydroxyproline content in the livers was measured using Quickzyme Total Collagen assay kit (Quickzyme Biosciences). Mouse serum levels of alanine aminotransferease (ALT), cholesterol, and triglycerides were measured using Alanine Transaminase Activity Assay Kit (ab105134, abcam), Cholesterol Assay Kit (ab65390, abcam), and Triglyceride Assay Kit (ab65336, abcam), respectively. […]

[1] = Long-term high dose preclinical toxicology of X209 and X203; type: in vivo, mouse; details: 10 mg/kg ×2/week, 5 months
Protocol: FIGS. 19A to 19J. Anti-IL-11 therapies inhibit HSC-to-myofibroblasts transformation in an ERK dependent manner and have a favourable metabolic safety profile. (A) Dose-response curve and IC50 value of X203 and X209 and ([…] to 4 μg/ml; 4-fold dilution) in inhibiting MMP2 secretion by TGFβ1-stimulated HSCs. (B) ELISA of IL-11 secretion from HSCs stimulated with various NASH factors (n≥5/group). (C) Representative fluorescence images and quantification of ACTA2^+ve cells from HSCs treated with TGFβ1 and other NASH factors in the presence of IgG, X203, or X209 (scale bars, 100 μm and dotted line represents the median value of baseline). (D) Effects of X203 and X209 on PDGF- or CCL2-induced HSC invasion. (E) Western blots of p-ERK and ERK in HSC lysates stimulated IL-11 (upper panel) or with various NASH factors in the presence of IgG or X209 (bottom panel). (F) Representative fluorescence images and quantification of ACTA2^+ve cells in HSCs treated with IL-11 and important NASH factors in the presence of ERK/MEK inhibitors U0126 or PD98059 (scale bars, 100 μm and dotted line represents the median value of baseline). (A-F) TGFβ1 (5 ng/ml), IL-11 (5 ng/ml), PDGF (20 ng/ml), AngII (100 nM), bFGF (10 ng/ml), CM (5 ng/ml), H2O2 (0.2 mM), IgG, X203 and X209 (2 μg/ml), U0126 or PD98059 (10 μM); (A,C,E-F) 24 h; (B,D) 48 h. (G) Peripheral platelet counts, (H) serum ALT levels, (I), serum triglycerides levels, and (J) serum cholesterol levels from mice injected biweekly with 10 mg/kg of X203 and X209 for 5 months (n≥5/group). (B,D) Data are shown as mean±s.d; (C,F,G-J) data are shown as box-and-whisker with median (middle line), 25th-75th percentiles (box) and min-max percentiles (whiskers). (B,D,G-J) Two-tailed Dunnett's test; (C, F) two-tailed, Tukey-corrected Student's t-test. FC: fold change.
The published literature on IL-11 in the liver is limited but injection of high dose recombinant human IL-11 into rodents has been associated with protective effects^13,14 and there is confusion as to a role for IL-11 in platelets biology^25. To exclude safety issues, the inventors performed long-term (5 months) high dose (10 mg/kg×2/week) preclinical toxicology studies of X209 and X203 and observed no effect on serum ALT levels or platelets (FIG. 19G-19H). Consistent with the data in the Il11ra^−/− mice, anti-IL-11 therapies lowered, or trended towards lowering, serum lipid levels during this treatment period (FIGS. 19I-19J).

[2] = test system: mice with folate-induced kidney injury; test: Weight loss after folate-induced acute kidney injury; type: in vivo, mouse
Protocol: Kidney injury was induced by IP injection of folic acid (180 mg/kg) in vehicle (0.3M NaHCO3) to 10-week old male mice; control mice were administered vehicle alone. Animals were sacrificed 28 days post-injection. Mice were intraperitoneally injected every 3 days with 20 mg/kg of anti-IL-11 antibody, anti-IL-11 RA antibody or identical concentration of IgG isotype control starting from 1 hour before folic acid administration until the mice were sacrificed.
In a second experiment kidney injury was induced as before by IP injection of folic acid. Mice were only treated with anti-IL-11 antibody or IgG control from 21 days after kidney injury. Animal weight was assessed before and after antibody treatment.

[3] = 20 mg/kg every 3 days from 1 hour before folic acid

Molecule	IC50 (TGFβ1-stimulated HSCs; read-out: IC50 for HSC activation)	platelets [1]	serum ALT levels [1]	body weight [2, 3]	body weight ([2]; treated from 21 days after kidney injury)	IC50 (TGFβ1-stimulated HSCs; TGFβ1 5 ng/ml, 24 h, 4 μg/ml to 61 pg/ml, 4-fold dilutions, read-out: IC50, blocking MMP2 secretion from HSCs)
X203: mouse anti-mouse IL-11 IgG (IgG1κ), neutralising; VH SEQ ID NO:22, VL SEQ ID NO:23 (antibody, V domains shown, Enx203 VH; Enx203 VL) VH: EVQLQQSGPELVKPGASVKIPCKASGYTFTDYNMDWVKQSHGKSLEWIGDINPHNGGPIYNQKFTGKATLTVDKSSSTAYMELRSLTSEDTAVYYCARGELGHWYFDVWGTGTTVTVSS VL: DIVLTQSPASLAVSLGQRATISCRASKSVSTSGYSYIHWYQQKPGQPPKLLIYLASNLDSGVPARFSGSGSGTDFTLNIHPVEEEDAATYYCQHSRDLPPTFGGGTKLEIK	0.0401 nM	no effect	no effect	returned to normal, or near normal, weight by 3 weeks later	started to regain weight upon initiation of treatment	–
X209: mouse anti-mouse IL-11Rα IgG (IgG1κ), neutralising; VH SEQ ID NO:24, VL SEQ ID NO:25 (antibody, V domains shown, Enx209 VH; Enx209 VL) VH: QVQLQQPGAELVRPGSSVKLSCKASGYTFTNYWMHWLKQRPVQGLEWIGNIGPSDSKTHYNQKFKDKATLTVDKSSSTAYMQLNSLTSEDSAVYYCARGDYVLFTYWGQGTLVTVSA VL: DIVLTQSPATLSLSPGERATLSCRASQSISNNLHWYQQKSHEAPRLLIKYASQSISGIPARFSGSGSGTDFTLSFSSLETEDFAVYFCQQSYSWPLTFGQGTKLEIK	–	no effect	no effect	returned to normal, or near normal, weight by 3 weeks later	–	0.0058 nM
